Assay results published in paper PMC10871540 (Science Advances, 2024).

Target: T1, UNC-40 ECD (C. elegans, UniProt G5EF96 23-1082)
T1 sequence (looked up): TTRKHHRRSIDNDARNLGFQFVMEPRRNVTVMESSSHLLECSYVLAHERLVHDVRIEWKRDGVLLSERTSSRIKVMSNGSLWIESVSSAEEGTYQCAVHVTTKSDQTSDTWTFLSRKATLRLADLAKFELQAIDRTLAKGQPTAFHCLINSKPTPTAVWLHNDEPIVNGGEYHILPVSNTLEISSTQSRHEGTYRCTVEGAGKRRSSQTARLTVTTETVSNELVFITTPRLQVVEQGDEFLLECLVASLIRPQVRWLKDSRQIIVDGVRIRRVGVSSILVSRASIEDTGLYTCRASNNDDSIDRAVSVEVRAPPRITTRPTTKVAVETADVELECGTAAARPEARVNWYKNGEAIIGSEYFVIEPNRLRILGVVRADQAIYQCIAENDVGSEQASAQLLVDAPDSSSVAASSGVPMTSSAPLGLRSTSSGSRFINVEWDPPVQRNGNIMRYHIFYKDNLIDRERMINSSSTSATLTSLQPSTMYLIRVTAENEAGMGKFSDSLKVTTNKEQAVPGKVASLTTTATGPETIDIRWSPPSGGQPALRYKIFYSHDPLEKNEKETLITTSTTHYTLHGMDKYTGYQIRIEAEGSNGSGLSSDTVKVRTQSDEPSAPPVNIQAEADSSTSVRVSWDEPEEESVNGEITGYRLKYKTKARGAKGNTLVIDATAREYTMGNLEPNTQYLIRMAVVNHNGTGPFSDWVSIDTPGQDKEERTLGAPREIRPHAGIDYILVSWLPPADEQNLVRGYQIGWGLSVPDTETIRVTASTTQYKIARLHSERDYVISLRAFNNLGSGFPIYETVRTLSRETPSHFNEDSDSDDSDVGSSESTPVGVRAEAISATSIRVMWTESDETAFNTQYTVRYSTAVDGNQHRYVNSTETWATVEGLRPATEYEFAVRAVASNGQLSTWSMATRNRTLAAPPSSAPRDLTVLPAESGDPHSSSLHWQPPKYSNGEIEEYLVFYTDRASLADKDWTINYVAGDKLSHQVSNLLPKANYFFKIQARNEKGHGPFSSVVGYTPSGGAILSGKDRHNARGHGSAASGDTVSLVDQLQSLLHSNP
Test: SEC

B1: UNC-6ΔC (ligand)
chain: not shown
binding result: binds
